Test results taken from the supplement of paper PMC9112550, “Optimization of the antimicrobial peptide Bac7 by deep mutational scanning” (BMC Biology, 2022).

Test system: Escherichia coli TOP10
Assay: shrunken log2 fold change of peptide-encoding DNA abundance (4.5 h post-induction vs induction); higher = less antimicrobial activity (less host growth inhibition)
Settings: time post-induction: 4.5 h; library: site-saturation at positions 5, 18, 19, 20
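Also: peptides expressed intracellularly from a pBAD plasmid library in pooled LB shake-flask culture, induced with 0.3% L-arabinose, DNA abundance read by NGS, three biological replicates, DESeq2 with apeglm shrinkage.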

Sequence | shrunken log2 fold change
RRIRARPPRLPRPRPRPNPFPRP | -0.0899
RRIRFRPPRLPRPRPRPHRWPRP | -0.17
RRIRYRPPRLPRPRPRPWYWPRP | -0.0383
RRIRERPPRLPRPRPRPKRPPRP | 0.194
RRIRVRPPRLPRPRPRPTRFPRP | 0.0403
RRIRGRPPRLPRPRPRPADAPRP | 1
RRIRHRPPRLPRPRPRPRVEPRP | 0.0973
RRIRSRPPRLPRPRPRPIARPRP | 0.029
RRIRMRPPRLPRPRPRPFPMPRP | 0.237
RRIRQRPPRLPRPRPRPNERPRP | -0.0297
RRIRDRPPRLPRPRPRPHGHPRP | 0.0317
RRIRIRPPRLPRPRPRPFCTPRP | -0.542
RRIRFRPPRLPRPRPRPSRRPRP | -0.0576
RRIRQRPPRLPRPRPRPAFFPRP | 0.11
RRIRPRPPRLPRPRPRPMPPPRP | 0.194
RRIRIRPPRLPRPRPRPDCTPRP | 0.0385
RRIRWRPPRLPRPRPRPMFGPRP | -0.0457
RRIRTRPPRLPRPRPRPQMRPRP | 0.472
RRIRWRPPRLPRPRPRPKFFPRP | 0.00459
RRIRKRPPRLPRPRPRPVERPRP | 0.204
RRIRFRPPRLPRPRPRPWFHPRP | -0.714
RRIRQRPPRLPRPRPRPPVIPRP | -0.498

Sequence | shrunken log2 fold change
RRIRHRPPRLPRPRPRPEKIPRP | 0.0327
RRIRFRPPRLPRPRPRPAYWPRP | 0.21
RRIRVRPPRLPRPRPRPPYYPRP | -0.363
RRIRQRPPRLPRPRPRPRQPPRP | 0.622
RRIRIRPPRLPRPRPRPVKGPRP | -0.0688
RRIRYRPPRLPRPRPRPSYFPRP | -0.684
RRIRVRPPRLPRPRPRPSHLPRP | -0.443
RRIRARPPRLPRPRPRPADRPRP | 0.256
RRIRRRPPRLPRPRPRPTTLPRP | 0.0363
RRIRGRPPRLPRPRPRPPTMPRP | 0.429
RRIRDRPPRLPRPRPRPWWLPRP | 0.0758
RRIRNRPPRLPRPRPRPDYLPRP | -0.142
RRIRDRPPRLPRPRPRPSDVPRP | -0.022
RRIRCRPPRLPRPRPRPPCPPRP | 0.487
RRIRSRPPRLPRPRPRPKAEPRP | 0.213
RRIRERPPRLPRPRPRPITWPRP | 0.0224
RRIRMRPPRLPRPRPRPKQTPRP | 3.33
RRIRYRPPRLPRPRPRPQQMPRP | -0.232
RRIRTRPPRLPRPRPRPKRQPRP | 0.562
RRIRTRPPRLPRPRPRPAPHPRP | 0.22
RRIRGRPPRLPRPRPRPQMDPRP | 0.291
RRIRVRPPRLPRPRPRPLYNPRP | -0.56

Sequence | shrunken log2 fold change
RRIRERPPRLPRPRPRPLYPPRP | -0.458
RRIRQRPPRLPRPRPRPASAPRP | 0.196
RRIRMRPPRLPRPRPRPYCHPRP | -0.545
RRIRRRPPRLPRPRPRPYYFPRP | -0.139
RRIRSRPPRLPRPRPRPYTTPRP | -0.0205
RRIRFRPPRLPRPRPRPNCGPRP | -0.0249
RRIRRRPPRLPRPRPRPYDSPRP | -0.545
RRIRNRPPRLPRPRPRPTNYPRP | -0.73
RRIRMRPPRLPRPRPRPKSRPRP | 0.0662
RRIRSRPPRLPRPRPRPWPRPRP | 0.646
RRIRERPPRLPRPRPRPHEIPRP | -0.0168
RRIRLRPPRLPRPRPRPTNLPRP | -0.27
RRIRLRPPRLPRPRPRPWHNPRP | -0.00136
RRIRTRPPRLPRPRPRPGKEPRP | -0.00507
RRIRWRPPRLPRPRPRPNHCPRP | -0.0525
RRIRQRPPRLPRPRPRPCSKPRP | -0.18
RRIRHRPPRLPRPRPRPDLNPRP | 0.015
RRIRERPPRLPRPRPRPHLHPRP | -0.485
RRIRFRPPRLPRPRPRPQFHPRP | -0.839
RRIRGRPPRLPRPRPRPWLQPRP | 0.201
RRIRWRPPRLPRPRPRPICCPRP | 0.149
RRIRGRPPRLPRPRPRPQSCPRP | 0.195

Sequence | shrunken log2 fold change
RRIRARPPRLPRPRPRPGDIPRP | -0.0868
RRIRFRPPRLPRPRPRPFLEPRP | -0.355
RRIRPRPPRLPRPRPRPPICPRP | -0.474
RRIRRRPPRLPRPRPRPNCDPRP | 0.186
RRIRWRPPRLPRPRPRPHSGPRP | 0.00842
RRIRRRPPRLPRPRPRPATSPRP | 0.0892
RRIRHRPPRLPRPRPRPMPIPRP | 0.113
RRIRYRPPRLPRPRPRPGHMPRP | -0.195
RRIRKRPPRLPRPRPRPVDSPRP | 0.134
RRIRIRPPRLPRPRPRPNQEPRP | -0.177
RRIRDRPPRLPRPRPRPYIVPRP | 0.0363
RRIRIRPPRLPRPRPRPDWVPRP | 0.135
RRIRYRPPRLPRPRPRPTLEPRP | -0.136
RRIRERPPRLPRPRPRPWFPPRP | -0.206
RRIRWRPPRLPRPRPRPHWWPRP | 0.629
RRIRLRPPRLPRPRPRPDGSPRP | 0.0129
RRIRHRPPRLPRPRPRPLTNPRP | 0.185
RRIRERPPRLPRPRPRPKQIPRP | 0.169
RRIRSRPPRLPRPRPRPRDGPRP | 1.5
RRIRVRPPRLPRPRPRPGAVPRP | 0.481
RRIRHRPPRLPRPRPRPVPQPRP | -0.0725
RRIRRRPPRLPRPRPRPKDHPRP | 0.0887

Sequence | shrunken log2 fold change
RRIRWRPPRLPRPRPRPVLAPRP | 0.582
RRIRMRPPRLPRPRPRPEHHPRP | 0.323
RRIRGRPPRLPRPRPRPGEEPRP | 0.965
RRIRYRPPRLPRPRPRPLTKPRP | -0.281
RRIRNRPPRLPRPRPRPYHFPRP | -0.309
RRIRTRPPRLPRPRPRPCPFPRP | -0.484
RRIRVRPPRLPRPRPRPEYHPRP | -0.287
RRIRHRPPRLPRPRPRPQANPRP | 0.0174
RRIRKRPPRLPRPRPRPVFFPRP | 0.341
RRIRWRPPRLPRPRPRPSMEPRP | 0.0397
RRIRKRPPRLPRPRPRPGKIPRP | 0.494
RRIRHRPPRLPRPRPRPLNTPRP | -0.351
RRIRYRPPRLPRPRPRPKPVPRP | 0.218
RRIRMRPPRLPRPRPRPPHCPRP | 1.68
RRIRQRPPRLPRPRPRPHEQPRP | 0.0505
RRIRPRPPRLPRPRPRPARGPRP | 0.606
RRIRQRPPRLPRPRPRPEVYPRP | -0.0137
RRIRERPPRLPRPRPRPLRWPRP | 0.459
RRIRERPPRLPRPRPRPAADPRP | 0.127
RRIRGRPPRLPRPRPRPGTWPRP | 0.255
RRIRARPPRLPRPRPRPQGTPRP | 0.451
